The target in assay [1] is CHMP1A (positive-control partner of the Gal4-CHMP1B constructs in the two-hybrid assay). Kind of assay: yeast two-hybrid (β-galactosidase activity). Conditions: parent: est. 0.71; read off a plot.
Assay [2] addresses IST1 MIM1 peptide (residues 344–366), fluorescently labeled (human). Briefly: fluorescence polarisation; 250 pM Oregon Green 488-labeled IST1 peptides, twofold dilutions of ULK3 proteins; 25 mM Tris pH 7.2, 150 mM NaCl, 0.1 mg/mL BSA, 0.01% Tween-20, 1 mM DTT; 1:1 fit.
Assay [3] concerns the target IST1 MIMs peptide (residues 316–366), fluorescently labeled (human). Described as above.

As for “CHMP1B WT fused to the Gal4 DNA-binding domain (from UniProt Q7LBR1) T178R; A181R; E184R”, the response in assay [1] is 0.89.

The Kd is the free concentration of one partner at which half of the binding sites on the other are occupied at equilibrium, for simple one-to-one binding. As for “ULK3 MIT2 (residues 359–449) (from UniProt Q6PHR2 359-449) (domain or fragment)”, the Kd in assay [2] came out at 0.77 µM. In assay [3], “ULK3(MIT)2 (residues 277–449) (from UniProt Q6PHR2 277-449) (domain or fragment)” showed a Kd of 0.2 µM. As to “ULK3(MIT)2 V338D (from UniProt Q6PHR2 277-449) (domain or fragment)”, the fold reduction of binding against wild-type ULK3(MIT)2 in assay [3] was under 2 fold.

In assay [3], “ULK3(MIT)2 M434D (from UniProt Q6PHR2 277-449) (domain or fragment)” showed a fold reduction of binding against wild-type ULK3(MIT)2 of over 100 fold.

The values above are taken from paper PMC4475061.
